Assay results: PMC6791870, “Switch of the interactions between the ribosomal stalk and EF1A in the GTP- and GDP-bound conformations” (Scientific Reports, 2019)
Changes are numbered by the printed parent chain. Primed or numbered codes have the meaning given here. Where no end group is shown, it is not given here. FITC′ = fluorescein isothiocyanate label

Assays:
Assay in all cases: fluorescence polarisation; FITC-labeled PhoP1C14 peptide (50 nM) mixed with 0-160 µM of the complex of each PhoEF1A mutant, GTP and PfuPelota; 20 mM HEPES-KOH pH 7.6, 10 mM MgCl2, 150 mM KCl, 0.1 mg/ml BSA; 25 °C; nonlinear regression, one site specific binding (GraphPad Prism 6); average of three replicates
Details in all cases: both partners purified
[1] = molecular target: T1, PhoEF1A I328S•GTP•PfuPelota complex (Pyrococcus horikoshii | Pyrococcus …, UniProt O59153 1-428, I328S)
T1 construct: elongation factor aEF1A of Pyrococcus horikoshii (PhoEF1A); complex of the EF1A mutant, GTP and PfuPelota; also called I328(F331)S; P. horikoshii aEF1A-I328S
T1 sequence 1: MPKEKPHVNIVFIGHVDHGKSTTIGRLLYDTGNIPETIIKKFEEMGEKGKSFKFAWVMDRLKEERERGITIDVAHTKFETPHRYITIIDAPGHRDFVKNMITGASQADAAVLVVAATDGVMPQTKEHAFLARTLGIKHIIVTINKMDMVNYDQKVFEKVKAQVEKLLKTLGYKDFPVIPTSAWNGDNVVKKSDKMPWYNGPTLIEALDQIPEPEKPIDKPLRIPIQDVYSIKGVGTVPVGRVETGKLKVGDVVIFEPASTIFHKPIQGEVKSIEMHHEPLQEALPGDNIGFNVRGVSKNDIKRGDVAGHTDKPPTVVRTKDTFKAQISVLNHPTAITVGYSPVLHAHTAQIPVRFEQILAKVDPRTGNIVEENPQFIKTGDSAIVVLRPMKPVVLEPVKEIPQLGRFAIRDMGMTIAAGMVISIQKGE
T1 sequence 2: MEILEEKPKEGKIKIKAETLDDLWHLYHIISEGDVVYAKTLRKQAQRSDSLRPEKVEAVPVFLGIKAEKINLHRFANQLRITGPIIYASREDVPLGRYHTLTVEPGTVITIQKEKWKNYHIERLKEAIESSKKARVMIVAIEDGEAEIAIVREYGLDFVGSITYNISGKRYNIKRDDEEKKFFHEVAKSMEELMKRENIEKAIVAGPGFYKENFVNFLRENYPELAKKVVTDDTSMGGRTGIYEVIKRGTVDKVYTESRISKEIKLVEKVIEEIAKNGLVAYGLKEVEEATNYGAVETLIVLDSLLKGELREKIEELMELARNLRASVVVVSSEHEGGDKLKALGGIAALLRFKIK

[2] = molecular target: T2, PhoEF1A R406A•GTP•PfuPelota complex (Pyrococcus horikoshii | Pyrococcus …, UniProt O59153 1-428, R406A)
T2 construct: elongation factor aEF1A of Pyrococcus horikoshii (PhoEF1A); complex of the EF1A mutant, GTP and PfuPelota; also called R406(R409)A; P. horikoshii aEF1A-R406A
T2 sequence 1: T1 sequence 1 with S328I, R406A
T2 sequence 2: T1 sequence 2

[3] = molecular target: T3, PhoEF1A Q326A•GTP•PfuPelota complex (Pyrococcus horikoshii | Pyrococcus …, UniProt O59153 1-428, Q326A)
T3 construct: elongation factor aEF1A of Pyrococcus horikoshii (PhoEF1A); complex of the EF1A mutant, GTP and PfuPelota; also called Q326(R329)A; P. horikoshii aEF1A-Q326A
T3 sequence 1: T1 sequence 1 with Q326A, S328I
T3 sequence 2: T1 sequence 2

Kd [1]: 93.3 ± 10.2 µM
Kd [2]: 33 ± 2.1 µM
Kd [3]: 11.1 ± 0.8 µM
B1: FITC-labeled C-terminal 14-mer peptide of P. horikoshii aP1 (PhoP1C14) (peptide)
peptide: {FITC′}-SEEEALAGLSALFG
notes: also called FITC-labeled peptide of PhoP1C14; source: synthetic peptide (Hokkaido System Science Co., Ltd)
